Reference: patent US20250064852A1 (University of Pennsylvania, published 2025)

Columns and labels:
human CD5 = biological target: T1, human CD5 (human, UniProt P06127 25-495); test: cell microarray (Retrogenix): labelled CAR T cells on fixed HEK293 cells expressing human membrane proteins; library and confirmation screen
T1 construct: whole, on cells; also called primary target CD5
T1 sequence (looked up): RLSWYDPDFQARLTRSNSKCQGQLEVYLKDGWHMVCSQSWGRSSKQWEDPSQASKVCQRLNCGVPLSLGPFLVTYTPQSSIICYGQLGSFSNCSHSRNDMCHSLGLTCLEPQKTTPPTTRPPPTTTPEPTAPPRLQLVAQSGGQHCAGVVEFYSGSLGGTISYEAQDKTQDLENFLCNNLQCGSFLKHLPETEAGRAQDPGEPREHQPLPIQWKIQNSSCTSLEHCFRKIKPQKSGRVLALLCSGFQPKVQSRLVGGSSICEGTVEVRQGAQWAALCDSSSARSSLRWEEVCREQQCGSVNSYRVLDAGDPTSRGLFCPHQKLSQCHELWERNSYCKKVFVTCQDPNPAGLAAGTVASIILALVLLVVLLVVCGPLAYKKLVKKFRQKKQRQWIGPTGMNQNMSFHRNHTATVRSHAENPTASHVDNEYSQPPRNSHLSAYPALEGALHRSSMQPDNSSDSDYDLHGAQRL
Description: CART5 on- and off-targeting specificity analysis: For a library screen, CD5 KO CART5 cells were fluorescently labelled and screened for binding against fixed HEK293 cells/slides expressing 5828 human plasma membrane proteins and cell surface tethered human secreted proteins+398 human heterodimers in duplicates (18 slide sets, n=2 slides per slide set, 3.2×10⁷ cells/slide). In total, 22 primary hits (duplicate spots) were identified by analyzing fluorescence (Alexa Fluor 647 and ZsGreen1) on ImageQuant. There were a range of intensities (signal to background) from very weak to strong. A confirmation screen was performed by testing Mock KO UTD and CD5 KO CART5 cell binding against all 22 hits in duplicate on new slides. Library and confirmation screens as well as analyses were performed at Retrogenix, Charles River Laboratories.

[1] = biological target: T2, recombinant human CD5 protein conjugated to a polyhistidine (His) tag at the C-terminus (Sino Biologicals); … (human, UniProt P06127 25-372); test: flow cytometry on CAR T cells, APC anti-6x His-tag secondary antibody
T2 construct: Bought reagent; also called recombinant CD5 protein; not shown: C-terminal polyhistidine tag
T2 sequence (looked up): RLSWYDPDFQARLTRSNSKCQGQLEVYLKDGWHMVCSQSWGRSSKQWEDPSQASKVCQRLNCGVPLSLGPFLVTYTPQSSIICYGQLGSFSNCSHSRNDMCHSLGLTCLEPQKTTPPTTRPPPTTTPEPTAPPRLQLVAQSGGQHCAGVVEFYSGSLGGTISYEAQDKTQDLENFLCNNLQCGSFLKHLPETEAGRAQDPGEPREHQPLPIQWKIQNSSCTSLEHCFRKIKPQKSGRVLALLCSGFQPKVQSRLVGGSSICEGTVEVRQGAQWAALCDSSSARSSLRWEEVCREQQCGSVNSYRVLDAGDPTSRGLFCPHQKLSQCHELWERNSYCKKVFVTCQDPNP
Description: General flow cytometry: Cells were resuspended in FACS staining buffer (phosphate buffered saline (PBS)+2% FBS) using one or more of the following antibodies: CD5 (UCHT2; BioLegend; Cat #300612), CD4, CD8 (RPA-T8; BD Biosciences; Cat #563795), CD45RA (L48; BD Biosciences; Cat #347723), CCR7 (G043H7; BioLegend; Cat #353214), PD1 (EH12.1; BD Biosciences; Cat #562516), LAG3 (3DS223H; Invitrogen; Cat #11-2239-42), CD3 (UCHT1; BD Biosciences; Cat #565119 or OKT3; BioLegend; Cat #317334), hCD45 (2D1; BioLegend; Cat #368522), or mCD45. CAR5 was detected by incubating cells with recombinant human CD5 protein conjugated to a polyhistidine (His) tag at the C-terminus (Sino Biologicals; Cat #11027-H08H) followed by an Allophycocyanin (APC) anti-6× His-tag secondary antibody (Abcam; Cat #ab72579). CARmeso was detected using a Biotin-SP goat anti-human F(ab′)₂ antibody (Jackson ImmunoResearch; Cat #109-066-097) followed by an R-Phycoerythrin (PE) streptavidin secondary antibody (Jackson ImmunoResearch; Cat #016-110-084). All changes in overall tumor or T cell counts reflected by absolute cell counts were determined using Flow-Count Fluorospheres (Beckman; Cat #754053). Cell viability was established using ViaKrome 808 Fixable Viability Dye (Beckman; Cat #C36628) and data were acquired on an LSRII Fortessa Cytometer (BD) or CytoFlex LX Flow Cytometer (Beckman). […]

binding result (human CD5): binds | binding result [1]: binds
B1: CD5-17H2L-3054 CAR (anti-CD5 chimeric antigen receptor, clone #17, heavy-to-light chain orientation) (other)
chain: GSEVQLVESGPGLVQPSQSLSITCTVSGFSLTNYDVHWVRQSPGKGLEWLGVIWNYGNTDYNAAFISRLSIRKDSSKSQVFFTMSSLQTPDTAIYYCARNHGDGYYNWYFDVWGTGTTVTVSSGGGGSGGGGSGGGGSNIVLTQSPSSLSESLGGKVTITCKASQDINKYIAWYQYKPGKGPRLLIHYTSTLQPGIPSRFSGSGSGRDYSFSISNLEPEDIATYYCLQYDNLWTFGGGTKLEIKSRTTTPAPRPPTPAPTIASQPLSLRPEACRPAAGGAVHTRGLDFACDIYIWAPLAGTCGVLLLSLVITLYCHMKRGRKKLLYIFKQPFMRPVQTTQEEDGCSCRFPEEEEGGCELTSRVKFSRSADAPAYQQGQNQLYNELNLGRREEYDVLDKRRGRDPEMGGKPRRKNPQEGLYNELQKDKMAEAYSEIGMKGERRRGKGHDGLYQGLSTATKDTYDALHMQALPPR
notes: also called CAR5; anti-CD5 CAR
